Measurements as given in the supplement of paper PMC9112550, “Optimization of the antimicrobial peptide Bac7 by deep mutational scanning” (BMC Biology, 2022).

test system: Escherichia coli TOP10; assay: shrunken log2 fold change of peptide-encoding DNA abundance (4.5 h post-induction vs induction); higher = less antimicrobial activity (less host growth inhibition); conditions: time post-induction: 4.5 h; library: site-saturation at positions 5, 18, 19, 20
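Further: peptides expressed intracellularly from a pBAD plasmid library in pooled LB shake-flask culture, induced with 0.3% L-arabinose, DNA abundance read by NGS, three biological replicates, DESeq2 with apeglm shrinkage.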

Point of comparison: RRIRERPPRLPRPRPRPNNDPRP, “shrunken log2 fold change” value -0.663. Against it:
- RRIRFRPPRLPRPRPRPYFRPRP — higher, -0.134
- RRIRPRPPRLPRPRPRPWVYPRP — higher, -0.227
- RRIRERPPRLPRPRPRPGMDPRP — within 0.2 log units, -0.696
- RRIRHRPPRLPRPRPRPLEKPRP — higher, -0.1
- RRIRYRPPRLPRPRPRPFHCPRP — higher, -0.0983
- RRIRIRPPRLPRPRPRPLEMPRP — higher, -0.373
- RRIRDRPPRLPRPRPRPSTKPRP — higher, 0.116
- RRIRGRPPRLPRPRPRPSDMPRP — higher, 0.488
- RRIRKRPPRLPRPRPRPRAGPRP — higher, 0.48
- RRIRCRPPRLPRPRPRPAIFPRP — higher, -0.273
- RRIRLRPPRLPRPRPRPATYPRP — higher, -0.212
- RRIRPRPPRLPRPRPRPHAGPRP — higher, 1.77
- RRIRNRPPRLPRPRPRPRKTPRP — higher, -0.0384
- RRIRIRPPRLPRPRPRPSVEPRP — lower, -0.947
- RRIRKRPPRLPRPRPRPMSEPRP — higher, 0.148
- RRIRKRPPRLPRPRPRPFQPPRP — higher, 0.0366
- RRIRSRPPRLPRPRPRPCTHPRP — higher, -0.00194
- RRIRFRPPRLPRPRPRPNKYPRP — within 0.2 log units, -0.684
- RRIRMRPPRLPRPRPRPTRWPRP — higher, 2.21
- RRIRPRPPRLPRPRPRPTETPRP — higher, 0.132
- RRIRHRPPRLPRPRPRPAPVPRP — higher, 0.466
- RRIRNRPPRLPRPRPRPGIDPRP — higher, -0.042
- RRIRKRPPRLPRPRPRPSAMPRP — higher, 0.664
- RRIRMRPPRLPRPRPRPTPGPRP — higher, 1.13
- RRIRLRPPRLPRPRPRPCHAPRP — higher, -0.235
- RRIRHRPPRLPRPRPRPWPCPRP — higher, -0.027
- RRIRWRPPRLPRPRPRPNWGPRP — higher, 0.105
- RRIRLRPPRLPRPRPRPKNEPRP — higher, -0.198
- RRIRERPPRLPRPRPRPSWVPRP — higher, -0.178
- RRIRDRPPRLPRPRPRPRLWPRP — higher, 0.842
- RRIRPRPPRLPRPRPRPNEIPRP — higher, -0.139
- RRIRGRPPRLPRPRPRPRNRPRP — higher, 0.637
- RRIRQRPPRLPRPRPRPKEPPRP — higher, 0.0201
- RRIRWRPPRLPRPRPRPQQRPRP — higher, -0.102
- RRIRARPPRLPRPRPRPHDMPRP — higher, 0.245
- RRIRARPPRLPRPRPRPCATPRP — higher, 1.06
- RRIRKRPPRLPRPRPRPYHKPRP — higher, 0.0411
- RRIRGRPPRLPRPRPRPSAKPRP — higher, 1.12
- RRIRWRPPRLPRPRPRPMNLPRP — higher, -0.063
- RRIRRRPPRLPRPRPRPFAYPRP — higher, -0.0942
- RRIRARPPRLPRPRPRPLGVPRP — higher, 1.44
- RRIRSRPPRLPRPRPRPYNGPRP — higher, -0.0342
- RRIRMRPPRLPRPRPRPTWDPRP — higher, 0.762
- RRIRNRPPRLPRPRPRPLGGPRP — higher, 0.105
- RRIRSRPPRLPRPRPRPIDQPRP — higher, -0.174
- RRIRIRPPRLPRPRPRPVTHPRP — higher, -0.256
- RRIRGRPPRLPRPRPRPSGQPRP — higher, 0.538
- RRIRCRPPRLPRPRPRPENDPRP — higher, -0.0268
- RRIRIRPPRLPRPRPRPCALPRP — higher, 0.00316
- RRIRNRPPRLPRPRPRPQNYPRP — within 0.2 log units, -0.846
- RRIRCRPPRLPRPRPRPWKLPRP — higher, -0.269
- RRIRPRPPRLPRPRPRPLVLPRP — higher, 0.0114
- RRIRFRPPRLPRPRPRPHWKPRP — higher, -0.162
- RRIRKRPPRLPRPRPRPKKNPRP — higher, 0.555
- RRIRPRPPRLPRPRPRPTCKPRP — higher, -0.0419
- RRIRKRPPRLPRPRPRPIRLPRP — higher, -0.0783
- RRIRWRPPRLPRPRPRPHWNPRP — within 0.2 log units, -0.676
- RRIRTRPPRLPRPRPRPHKVPRP — higher, -0.00818
- RRIRTRPPRLPRPRPRPEAIPRP — higher, -0.00172
- RRIRGRPPRLPRPRPRPICGPRP — higher, 0.728
- RRIRWRPPRLPRPRPRPCCPPRP — higher, -0.206
- RRIRCRPPRLPRPRPRPFFLPRP — within 0.2 log units, -0.512
- RRIRTRPPRLPRPRPRPERRPRP — higher, 0.0791
- RRIRMRPPRLPRPRPRPWQGPRP — higher, 0.155
- RRIRHRPPRLPRPRPRPEIAPRP — higher, -0.0585
- RRIRARPPRLPRPRPRPMSDPRP — higher, 0.56
- RRIRGRPPRLPRPRPRPMCYPRP — higher, 0.243
- RRIRRRPPRLPRPRPRPCLVPRP — higher, -0.096
- RRIRMRPPRLPRPRPRPIRDPRP — higher, -0.261
- RRIRQRPPRLPRPRPRPPFEPRP — higher, 0.333
- RRIRPRPPRLPRPRPRPEQVPRP — higher, 0.0348
- RRIRQRPPRLPRPRPRPGMSPRP — higher, 0.285
- RRIRKRPPRLPRPRPRPSHKPRP — higher, -0.262
- RRIRHRPPRLPRPRPRPHEQPRP — higher, -0.0118
- RRIRWRPPRLPRPRPRPYWLPRP — higher, -0.0807
- RRIRKRPPRLPRPRPRPNGTPRP — higher, -0.0678
- RRIRERPPRLPRPRPRPKNPPRP — within 0.2 log units, -0.503
- RRIRFRPPRLPRPRPRPMSEPRP — higher, -0.381
- RRIRIRPPRLPRPRPRPPDWPRP — higher, 0.286
- RRIRMRPPRLPRPRPRPDFNPRP — higher, 0.0763
- RRIRNRPPRLPRPRPRPFYTPRP — lower, -1.29
- RRIRVRPPRLPRPRPRPDWCPRP — higher, 0.0302
- RRIRLRPPRLPRPRPRPTHAPRP — higher, 0.029
- RRIRSRPPRLPRPRPRPFWCPRP — higher, -0.0118
- RRIRARPPRLPRPRPRPTGIPRP — higher, 0.0125
- RRIRFRPPRLPRPRPRPPFLPRP — higher, -0.0645
- RRIRFRPPRLPRPRPRPIWHPRP — higher, -0.0746
- RRIRERPPRLPRPRPRPVKPPRP — higher, -0.102
- RRIRRRPPRLPRPRPRPNGRPRP — higher, -0.0152
- RRIRPRPPRLPRPRPRPVQKPRP — higher, 0.0644
- RRIRKRPPRLPRPRPRPDIQPRP — higher, 0.867
- RRIRKRPPRLPRPRPRPEFHPRP — higher, 0.131
- RRIRMRPPRLPRPRPRPGVTPRP — higher, 0.285
- RRIRIRPPRLPRPRPRPKLEPRP — higher, -0.136
- RRIRRRPPRLPRPRPRPLASPRP — higher, 0.382
- RRIRSRPPRLPRPRPRPEVWPRP — higher, 0.779
- RRIRTRPPRLPRPRPRPYKSPRP — higher, -0.118
- RRIRERPPRLPRPRPRPQEKPRP — higher, -0.015
- RRIRQRPPRLPRPRPRPEAQPRP — higher, 0.285
- RRIRWRPPRLPRPRPRPNMLPRP — higher, 0.0876
- RRIRWRPPRLPRPRPRPFCDPRP — higher, 0.189
- RRIRNRPPRLPRPRPRPMVVPRP — higher, 0.00587
- RRIRQRPPRLPRPRPRPYTTPRP — higher, -0.0148
- RRIRPRPPRLPRPRPRPLVFPRP — higher, 0.257
- RRIRMRPPRLPRPRPRPYFKPRP — within 0.2 log units, -0.647
- RRIRDRPPRLPRPRPRPVIAPRP — higher, 0.224
- RRIRSRPPRLPRPRPRPMQEPRP — higher, 0.169
- RRIRDRPPRLPRPRPRPQSGPRP — higher, -0.136
